Measured values taken from article PMC3471927, “The PduQ Enzyme Is an Alcohol Dehydrogenase Used to Recycle NAD^+ Internally within the Pdu Microcompartment of Salmonella enterica” (PLoS ONE, 2012).

B1: PduQ-His6 (Salmonella enterica subsp. enterica serovar Typhimurium str. LT2) (protein)
chain: MNTFSLQTRLYSGQGSLAVLKRFTNKHIWIICDGFLAHSPLLDTLRNALPADNRISVFSEITPDPTIHTVVQGIAQMQALQPQVVIGFGGGSAMDAAKAIVWFSQQSGINIETCVAIPTTSGTGSEVTSACVISDPDKGIKYPLFNNALYPDMAILDPELVVSVPPQITANTGMDVLTHALEAWVSPRASDFTDALAEKAAKLVFQYLPTAVEKGDCVATRGKMHNASTLAGMAFSQAGLGLNHAIAHQLGGQFHLPHGLANALLLTTVIRFNAGVPRAAKRYARLAKACGFCPAEANDIAAINALIQQIELLKQRCVLPSLAVALKEGRSDFSARIPAMVQAALADVTLRTNPRPANAEAIRELLEELL
notes: full length, C-terminal His6 kept, pET-41a in E. coli BL21(DE3) RIL, anaerobic Ni-NTA

Assays:
PduP = biological target: T1, PduP (Salmonella enterica, UniProt Q9XDN1); experiment: thioester formation at […] nm in purified Pdu MCPs; type: biochemical; conditions: 10 mM propionaldehyde, 200 mM 1,2-propanediol, 40 µM NAD+, 100 µM HS-CoA, 100 mM sodium phosphate pH 7.0
T1 construct: native PduP within anaerobically purified Pdu microcompartments (wild-type and pduQ deletion strain BE903)

purified protein [1] = substrate: NC(=O)C1=CN([C@@H]2O[C@H](COP(=O)(O)OP(=O)(O)OC[C@H]3O[C@@H](n4cnc5c(N)ncnc54)[C@H](O)[C@@H]3O)[C@@H](O)[C@H]2O)C=CC1; experiment: purified protein; type: biochemical, Salmonella enterica; conditions: 150 mM propionaldehyde, 100 mM sodium phosphate pH 7.0, anaerobic; pH 7.0
purified protein [2] = substrate: CCCO; experiment: purified protein; type: biochemical, Salmonella enterica; conditions: 2 mM NAD+, 100 mM Tris-HCl pH 9.0, anaerobic; pH 9.0
purified protein [3] = substrate: CCC=O; experiment: purified protein; type: biochemical, Salmonella enterica; conditions: 0.4 mM NADH, 100 mM sodium phosphate pH 7.0, anaerobic; pH 7.0
purified protein [4] = substrate: NC(=O)c1ccc[n+]([C@@H]2O[C@H](COP(=O)(O)OP(=O)(O)OC[C@H]3O[C@@H](n4cnc5c(N)ncnc54)[C@H](O)[C@@H]3O)[C@@H](O)[C@H]2O)c1; experiment: purified protein; type: biochemical, Salmonella enterica; conditions: 800 mM 1-propanol, 100 mM Tris-HCl pH 9.0, anaerobic; pH 9.0

T1 sequence (Q9XDN1 whole entry): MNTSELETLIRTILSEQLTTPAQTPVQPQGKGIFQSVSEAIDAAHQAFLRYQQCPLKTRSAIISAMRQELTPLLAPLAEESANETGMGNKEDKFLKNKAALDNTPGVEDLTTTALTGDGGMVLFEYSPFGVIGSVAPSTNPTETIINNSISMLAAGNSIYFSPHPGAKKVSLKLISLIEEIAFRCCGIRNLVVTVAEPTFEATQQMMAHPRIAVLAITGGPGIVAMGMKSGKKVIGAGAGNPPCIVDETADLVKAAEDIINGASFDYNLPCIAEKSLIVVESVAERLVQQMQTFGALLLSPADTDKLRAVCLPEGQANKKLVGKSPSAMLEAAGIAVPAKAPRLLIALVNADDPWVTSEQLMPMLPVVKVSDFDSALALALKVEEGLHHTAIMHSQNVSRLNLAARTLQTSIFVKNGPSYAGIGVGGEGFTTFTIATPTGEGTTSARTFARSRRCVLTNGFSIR

Row | Molecule | thioester formation at 232 nm in purified Pdu MCPs (PduP) | Km (purified protein [1]) [µM] | Vmax (purified protein [1]) [µmol/min/mg] | kcat (purified protein [1]) [s⁻¹] | kcat/Km (purified protein [1]) [M⁻¹ s⁻¹] | Km (purified protein [2]) | Vmax (purified protein [2]) [µmol/min/mg] | kcat (purified protein [2]) [s⁻¹] | kcat/Km (purified protein [2]) [M⁻¹ s⁻¹] | Km (purified protein [3]) | Vmax (purified protein [3]) [µmol/min/mg] | kcat (purified protein [3]) [s⁻¹] | kcat/Km (purified protein [3]) [M⁻¹ s⁻¹] | Km (purified protein [4]) [µM] | Vmax (purified protein [4]) [µmol/min/mg] | kcat (purified protein [4]) [s⁻¹] | kcat/Km (purified protein [4]) [M⁻¹ s⁻¹]
1 | CCC=O [propionaldehyde] | no measureable PduP activity without added HS-CoA, NAD^+ or propionaldehyde |  |  |  |  |  |  |  |  |  |  |  |  |  |  |  | 
2 | NC(=O)c1ccc[n+]([C@@H]2O[C@H](COP(=O)(O)OP(=O)(O)OC[C@H]3O[C@@H](n4cnc5c(N)ncnc54)[C@H](O)[C@@H]3O)[C@@H](O)[C@H]2O)c1 [NAD^+] | no measureable PduP activity without added HS-CoA, NAD^+ or propionaldehyde |  |  |  |  |  |  |  |  |  |  |  |  |  |  |  | 
3 | B1 |  | 45.3 ± 5.3 | 77.7 | 52.2 | 1.15e+06 | (95.8±9.2)×10^3 µM | 8.4 | 5.64 | 58.9 | (16.0±2.0)×10^3 µM | 81.3 | 54.6 | 3410 | 267.5 ± 22.3 | 9.2 | 6.18 | 23100
